Substrate: CC(C)=CCC/C(C)=C/CC/C(C)=C/CC[C@@](C)(O)CCC1=C(C)C(=O)C(C)=C(C)C1=O
Assay: Kinetic parameters of EPI-743 with SQOR
Format: biochemical, human
Conditions: other: 200 micromolar Na2S, 2 mM Na2SO3, pH 7.5, reduced oxygen (<1000 ppm), 30.0 °C
Excerpt: Human sulfide:quinone oxidoreductase (SQOR) protein was expressed and purified according to the method described in Jackson, M.R., et al. “Human Sulfide:Quinone Oxidoreductase Catalyzes the First Step in Hydrogen Sulfide Metabolism and Produces a Sulfane Sulfur Metabolite”, Biochemistry, Publication Date (Web): 1 Aug 2012, with the following exceptions: (1) a chaperone plasmid set (Plasmid pG-KJE8, plasmid #1 in catalog no. 3340) from Takara Bio Inc. (Japan) was used; (2) DHPC detergent was replaced with the following: 1.0% (w/v) CHAPS, 0.5% deoxycholate, or 1.0% octylmaltoside. The detergent was used in the initial lysis buffer, and removed in the IMAC purification step (no detergents in the storage conditions); (3) the ion-exchange (Q-sepharose) chromatography step was not used in the purification. The final SQOR protein contained amino acids 42-450 of the human SQOR protein.
Target protein was purified on IMAC to ≥90% purity (on Ni resin). Target protein was stored in 25 mM Tris pH 7.5, 150mM NaCl, 2 mM DTT 20% glycerol.
EPI-743 was assayed for activity with SQOR. […]
Briefly, SQOR enzyme, compound, inorganic sulfide (200 micromolar Na2S) and a sulfur acceptor (2 mM Na2SO3) were brought together. The reduction of the quinone substrate to hydroquinone product in the presence of sulfide ion, sulfur acceptor and SQOR enzyme was monitored by the decrease in quinone concentration over time, by observing the UV signal diagnostic for the specific quinone (See Table 3):
General assay conditions: Assays were performed in 100 mM Tris, pH 7.5, 0.5 mM EDTA. SQOR was included at approximately 5 nM, as estimated by total protein concentration determined by Bradford assay with BSA as standard and the estimated purity of SQOR from SDS-PAGE. […]
The kinetic parameters of compounds with SQOR were determined by varying the concentration of the compound over a suitable range and interrogating the impact of that variation on the enzymatic rate.
The parameters kcat and Km, for example, can be determined by nonlinear fitting of the rate data to the Michaelis-Menten equation: […]

B1: Human sulfide:quinone oxidoreductase (SQOR) (Homo sapiens) (protein)
chain: NHYEVLVLGGGSGGITMAARMKRKVGAENVAIVEPSERHFYQPIWTLVGAGAKQLSSSGRPTASVIPSGVEWIKARVTELNPDKNCIHTDDDEKISYRYLIIALGIQLDYEKIKGLPEGFAHPKIGSNYSVKTVEKTWKALQDFKEGNAIFTFPNTPVKCAGAPQKIMYLSEAYFRKTGKRSKANIIFNTSLGAIFGVKKYADALQEIIQERNLTVNYKKNLIEVRADKQEAVFENLDKPGETQVISYEMLHVTPPMSPPDVLKTSPVADAAGWVDVDKETLQHRRYPNVFGIGDCTNLPTSKTAAAVAAQSGILDRTISVIMKNQTPTKKYDGYTSCPLVTGYNRVILAEFDYKAEPLETFPFDQSKERLSMYLMKADLMPFLYWNMMLRGYWGGPAFLRKLFHLGMS
notes: The final SQOR protein contained amino acids 42-450 of the human SQOR protein; His tag (inferred from IMAC purification on Ni resin); made in house; E. coli is inferred from the Takara chaperone plasmid pG-KJE8 and from own knowledge of the cited Jackson et al. 2012 method
B1 was tested, and the Km was 200 µM, the kcat was 76 s⁻¹ and the kcat/Km was 400000 M⁻¹ s⁻¹.
